The sequences below were run on Escherichia coli TOP10 (assay: shrunken log2 fold change of peptide-encoding DNA abundance (4.5 h post-induction vs induction); higher = less antimicrobial activity (less host growth inhibition)). Settings: time post-induction: 4.5 h; library: site-saturation at positions 5, 18, 19, 20.
For RRIRVRPPRLPRPRPRPYNEPRP, the “shrunken log2 fold change” value was -0.429. RRIRFRPPRLPRPRPRPTMPPRP was tested, and the “shrunken log2 fold change” value was 0.0787. For RRIRERPPRLPRPRPRPWNIPRP, the “shrunken log2 fold change” value was -0.308. For RRIRNRPPRLPRPRPRPGFNPRP, the “shrunken log2 fold change” value was -0.207. In the case of RRIRIRPPRLPRPRPRPDHMPRP, the “shrunken log2 fold change” value is reported as -0.87. RRIRIRPPRLPRPRPRPYNHPRP was tested, and the “shrunken log2 fold change” value was -0.138. In the case of RRIRWRPPRLPRPRPRPSPMPRP, the “shrunken log2 fold change” value is reported as -0.108. With RRIRHRPPRLPRPRPRPEINPRP the “shrunken log2 fold change” value was -0.253. For RRIRWRPPRLPRPRPRPLNYPRP, the “shrunken log2 fold change” value was -0.546. In the case of RRIRHRPPRLPRPRPRPLWTPRP, the “shrunken log2 fold change” value is reported as -0.174. In the case of RRIRWRPPRLPRPRPRPECYPRP, the “shrunken log2 fold change” value is reported as -0.0149. RRIRMRPPRLPRPRPRPPWHPRP was tested, and the “shrunken log2 fold change” value was 0.438. In the case of RRIRMRPPRLPRPRPRPEVKPRP, the “shrunken log2 fold change” value is reported as 2.97. In the case of RRIRHRPPRLPRPRPRPKFPPRP, the “shrunken log2 fold change” value is reported as 0.442. For RRIRFRPPRLPRPRPRPIRGPRP, the “shrunken log2 fold change” value was -0.0057. For RRIRPRPPRLPRPRPRPVWSPRP, the “shrunken log2 fold change” value was 0.0634. RRIRIRPPRLPRPRPRPGVPPRP was tested, and the “shrunken log2 fold change” value was -0.0807. In the case of RRIRNRPPRLPRPRPRPCKDPRP, the “shrunken log2 fold change” value is reported as -0.00844. For RRIRHRPPRLPRPRPRPEDYPRP, the “shrunken log2 fold change” value was 0.0112. For RRIRARPPRLPRPRPRPLPMPRP, the “shrunken log2 fold change” value was 0.306. For RRIRIRPPRLPRPRPRPRIHPRP, the “shrunken log2 fold change” value was -0.287. For RRIRYRPPRLPRPRPRPDLWPRP, the “shrunken log2 fold change” value was -0.0329. In the case of RRIRIRPPRLPRPRPRPPWCPRP, the “shrunken log2 fold change” value is reported as 1.45. With RRIRQRPPRLPRPRPRPWRKPRP the “shrunken log2 fold change” value was -0.0153. RRIRFRPPRLPRPRPRPIQQPRP was tested, and the “shrunken log2 fold change” value was 0.056. For RRIRERPPRLPRPRPRPCTGPRP, the “shrunken log2 fold change” value was -0.264. With RRIRGRPPRLPRPRPRPNHCPRP the “shrunken log2 fold change” value was -0.112. RRIRHRPPRLPRPRPRPNSTPRP was tested, and the “shrunken log2 fold change” value was -1.48. RRIRPRPPRLPRPRPRPYHWPRP was tested, and the “shrunken log2 fold change” value was -0.449. RRIRNRPPRLPRPRPRPAGLPRP was tested, and the “shrunken log2 fold change” value was -0.118. For RRIRTRPPRLPRPRPRPLGSPRP, the “shrunken log2 fold change” value was 0.0751. For RRIRDRPPRLPRPRPRPPAEPRP, the “shrunken log2 fold change” value was 0.525. RRIRIRPPRLPRPRPRPRWYPRP was tested, and the “shrunken log2 fold change” value was -0.452. In the case of RRIRIRPPRLPRPRPRPAKPPRP, the “shrunken log2 fold change” value is reported as 0.297. With RRIRQRPPRLPRPRPRPAMCPRP the “shrunken log2 fold change” value was 0.171. RRIRIRPPRLPRPRPRPLVFPRP was tested, and the “shrunken log2 fold change” value was -0.348. RRIRYRPPRLPRPRPRPGIKPRP was tested, and the “shrunken log2 fold change” value was -0.311. RRIRMRPPRLPRPRPRPFFSPRP was tested, and the “shrunken log2 fold change” value was 0.195. In the case of RRIRLRPPRLPRPRPRPQLRPRP, the “shrunken log2 fold change” value is reported as -0.00627. For RRIRGRPPRLPRPRPRPPRYPRP, the “shrunken log2 fold change” value was 0.701. For RRIRIRPPRLPRPRPRPAWTPRP, the “shrunken log2 fold change” value was 0.304. With RRIRKRPPRLPRPRPRPWDDPRP the “shrunken log2 fold change” value was 0.0248. With RRIRQRPPRLPRPRPRPASVPRP the “shrunken log2 fold change” value was 0.253. In the case of RRIRNRPPRLPRPRPRPLVSPRP, the “shrunken log2 fold change” value is reported as -0.185. With RRIRFRPPRLPRPRPRPVIPPRP the “shrunken log2 fold change” value was -0.102. With RRIRTRPPRLPRPRPRPTHNPRP the “shrunken log2 fold change” value was 0.0318. With RRIRQRPPRLPRPRPRPRFPPRP the “shrunken log2 fold change” value was 0.0593. RRIRSRPPRLPRPRPRPEGDPRP was tested, and the “shrunken log2 fold change” value was 0.203. For RRIRVRPPRLPRPRPRPMFRPRP, the “shrunken log2 fold change” value was -0.048. RRIRDRPPRLPRPRPRPWMHPRP was tested, and the “shrunken log2 fold change” value was 0.00346. RRIRWRPPRLPRPRPRPTLFPRP was tested, and the “shrunken log2 fold change” value was 0.0961. In the case of RRIRDRPPRLPRPRPRPLEWPRP, the “shrunken log2 fold change” value is reported as 0.421. RRIRPRPPRLPRPRPRPDKCPRP was tested, and the “shrunken log2 fold change” value was -0.432. In the case of RRIRLRPPRLPRPRPRPTGTPRP, the “shrunken log2 fold change” value is reported as 0.104. For RRIRCRPPRLPRPRPRPQPFPRP, the “shrunken log2 fold change” value was 0.00986. In the case of RRIRTRPPRLPRPRPRPWLFPRP, the “shrunken log2 fold change” value is reported as 0.212. In the case of RRIRMRPPRLPRPRPRPKDLPRP, the “shrunken log2 fold change” value is reported as 0.153. In the case of RRIRSRPPRLPRPRPRPCHQPRP, the “shrunken log2 fold change” value is reported as -0.0637. RRIRTRPPRLPRPRPRPAIQPRP was tested, and the “shrunken log2 fold change” value was -0.216. In the case of RRIRMRPPRLPRPRPRPWAYPRP, the “shrunken log2 fold change” value is reported as -0.012. In the case of RRIRIRPPRLPRPRPRPGVMPRP, the “shrunken log2 fold change” value is reported as -0.346. With RRIRDRPPRLPRPRPRPQHWPRP the “shrunken log2 fold change” value was 0.122. RRIRVRPPRLPRPRPRPDQKPRP was tested, and the “shrunken log2 fold change” value was 0.002. For RRIRARPPRLPRPRPRPVGHPRP, the “shrunken log2 fold change” value was 0.189. For RRIRTRPPRLPRPRPRPSNSPRP, the “shrunken log2 fold change” value was -1.22. In the case of RRIRARPPRLPRPRPRPNKKPRP, the “shrunken log2 fold change” value is reported as -0.00857. With RRIRFRPPRLPRPRPRPVSVPRP the “shrunken log2 fold change” value was -0.341. RRIRPRPPRLPRPRPRPPTEPRP was tested, and the “shrunken log2 fold change” value was 0.306. RRIRCRPPRLPRPRPRPIGKPRP was tested, and the “shrunken log2 fold change” value was -0.188. With RRIRPRPPRLPRPRPRPQPYPRP the “shrunken log2 fold change” value was -0.177. RRIRARPPRLPRPRPRPVFEPRP was tested, and the “shrunken log2 fold change” value was 0.41. For RRIRCRPPRLPRPRPRPMYIPRP, the “shrunken log2 fold change” value was -0.675. RRIRGRPPRLPRPRPRPERKPRP was tested, and the “shrunken log2 fold change” value was 0.92. With RRIRHRPPRLPRPRPRPQSPPRP the “shrunken log2 fold change” value was 0.0863. With RRIRRRPPRLPRPRPRPVLYPRP the “shrunken log2 fold change” value was -0.142.
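Further: peptides expressed intracellularly from a pBAD plasmid library in pooled LB shake-flask culture, induced with 0.3% L-arabinose, DNA abundance read by NGS, three biological replicates, DESeq2 with apeglm shrinkage.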
